Reference: PMC3871058

Tests used:
[1] = target: Protein A (UniProt P38507); assay: electrochemical impedance spectroscopy (EIS); Protein A (0.25 mg/mL, 90 min) adsorbed to the gold surface of a Topas chip, blocked with 1 mg/mL BSA; 500 uL of 0.565 mg/mL IgG1 added for 90 min, rinsed with 10 mM Tris-HCl; impedance at 251 Hz, AC amplitude 10 mV; measured together with SPR in one PDMS flow cell
[2] = target: Protein A (UniProt P38507); assay: SPR; Protein A (0.25 mg/mL, 90 min) adsorbed to the gold surface of a Topas chip, blocked with 1 mg/mL BSA; 500 uL of 0.565 mg/mL IgG1 added for 90 min, rinsed with 10 mM Tris-HCl; plateaus in 10 mM Tris-HCl compared; measured together with EIS in one PDMS flow cell

immunoglobulin-G (IgG1) (antibody) was tested, and the impedance at 251 Hz after IgG1 and the last rinse [1] was 51 kΩ, the increase in impedance, normalised to the initial value [1] was 18.6% and the local minimum (RU) after IgG1 and the last rinse [2] was 460 RU. The minimum shift, normalised to the initial value [2] was 35.3%.
